Data from patent publication US20150266960A1 (University of Texas, published 2015).
Each block holds one molecule with its values, some of them ahead of it.

B1: Wild type IgA Fc domain (other)
chain: VPCPVPSTPPTPSPSTPPTPSPSCCHPRLSLHRPALEDLLLGSEANLTCTLTGLRDASGVTFTWTPSSGKSAVQGPPERDLCGCYSVSSVLPGCAEPWNHGKTFTCTAAYPESKTPLTATLSKSGNTFRPEVHLLPPPSEELALNELVTLTCLARGFSPKDVLVRWLQGSQELPREKYLTWASRQEPSQGTTTFAVTSILRVAAEDWKKGDTFSCMVGHEALPLAFTQKTIDR
notes: Template for the alanine scan; also called wild-type glycosylated IgA; IgA CH2 CH3

Assays:
FcαRI-GST [1] = molecular target: T1, FcαRI-GST (UniProt P24071 22-227, limits assumed); experiment: SPR, antibody amine coupled, dimeric FcαRI-GST flowed, 2:1 bivalent analyte fit
T1 construct: extracellular domain; Made in HEK293F cells from pMaz-IgH-FcαRI-GST (dimeric expression) and purified on glutathione Sepharose; also called soluble dimeric FcαRI-GST; CD89; not shown: GST tag

FcγRI-GST = molecular target: T2, FcγRI-GST (UniProt P12314 16-292, limits assumed); experiment: ELISA: Fc domain coated at 4 µg/mL, FcγRI-GST in 1:4 serial dilution, anti-GST HRP, A450
T2 construct: not shown: GST tag
Method: (§1) ELISA plates (Qiagen) were coated with 4 μg/mL of each of the mutant Fc domains in 1×PBS (pH 7.4) overnight at 4° C. The next day the plates were blocked for 2 hours at room temperature with 2% milk in 1×PBS containing 0.05% Tween (PBST) and washed three times in PBST at pH 7.4. To the first well, 66 μL of 20 μg/mL of either FcγRI-GST, FcγRI-GST, FcγRIIa-R131-GST, FcγRIIb-GST, or FcγRIIIa-F158-GST dissolved in PBS with 2% milk (PBSM) was added followed by 1:4 serial dilution. After 1 h of incubation at room temperature, the plates were washed and 50 μL PBSM was added containing 1:5000 goat anti-GST HRP (GE Healthcare) for 1 hour. To develop the plates, the wells were washed 3× with PBST, 50 μL TMB substrate was added per well (Thermo Scientific), 50 μL of 1 M H₂SO₄ was added to neutralize, and the absorbance at 450 nm was recorded.

Wild type IgA Fc domain = molecular target: B1; experiment: ELISA: Fc domain coated at 4 µg/mL, FcγRIIa-R131-GST in 1:4 serial dilution, anti-GST HRP, A450
Method: as §1

FcαRI-GST [2] = molecular target: T1, FcαRI-GST; experiment: ELISA: Fc domain coated at 4 µg/mL, FcαRI-GST in 1:4 serial dilution, anti-GST HRP, A450
Method: as §1

T1 sequence (P24071 22-227 limits assumed): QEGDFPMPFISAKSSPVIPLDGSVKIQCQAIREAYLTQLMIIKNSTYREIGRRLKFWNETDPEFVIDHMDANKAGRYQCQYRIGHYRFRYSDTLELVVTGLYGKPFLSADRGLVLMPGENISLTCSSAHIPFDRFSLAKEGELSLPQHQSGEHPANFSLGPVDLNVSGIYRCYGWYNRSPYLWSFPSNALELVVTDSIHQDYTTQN
T2 sequence (P12314 16-292 limits assumed): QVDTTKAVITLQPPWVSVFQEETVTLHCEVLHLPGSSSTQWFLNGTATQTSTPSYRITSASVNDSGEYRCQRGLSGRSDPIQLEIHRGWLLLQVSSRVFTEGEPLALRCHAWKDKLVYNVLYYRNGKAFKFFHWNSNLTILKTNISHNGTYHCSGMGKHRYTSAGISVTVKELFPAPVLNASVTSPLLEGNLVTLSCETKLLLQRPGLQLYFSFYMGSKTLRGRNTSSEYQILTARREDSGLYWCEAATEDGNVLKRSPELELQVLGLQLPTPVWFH

Molecule: B1
binding result (FcγRI-GST): no binding

B2: FcγRIIa-R131-GST (receptor, UniProt P12318 34-217, looked up)
chain: QAAAPPKAVLKLEPPWINVLQEDSVTLTCQGARSPESDSIQWFHNGNLIPTHTQPSYRFKANNNDSGEYTCQTGQTSLSDPVHLTVLSEWLVLQTPHLEFQEGETIMLRCHSWKDKPLVKVTFFQNGKSQKFSRLDPTFSIPQANHSHSGDYHCTGNIGYTLFSSKPVTITVQVPSMGSSSPMG
notes: R131 is an allele name counted on the mature protein; not shown: GST tag
binding result (Wild type IgA Fc domain): no binding

Continued, values first:

Kd (FcαRI-GST [1]): 500 nM
Molecule: trastuzumab IgA (antibody)

binding result (FcαRI-GST [2]): no binding
B3: Mutant B (other)
Fc chain (hinge-CH2-CH3): DKTHTCPPCPAPELLGGPSVFLFPPKPKDTLMISRTPEVTCVVVDVSHEDPEVKFNWYVDGVEVHNAKTKPREEQYNSTYRVVSVLTVLHQDWLNGKEYKCKVSNKALPAPIEKTISKAKSGNTFRPEVHLLPPPSEELALNELVTLTCLARGFSPKDVLVRWLQGSQELPREKYLTWASRQEPSQGTTTFAVTSILRVAAEDWKKGDTFSCMVGHEALPLAFTQKTIDR
notes: Purified over Ni-NTA (His tag); also called Mutant B Fc domain; MutB
